The values that follow come from publication PMC3229572.

Where “and” joins values, the source holds several entries; their conditions need not be identical. Equal values may be shown once.

The assay concerns the target recombinant full length M2 protein of influenza virus A/Hong Kong/8/68 (H3N2) (influenza A virus A/Hong Kong/8/68 (H3N2)).

For the substance “recombinant full length M2 protein of influenza virus A/Hong Kong/8/68 (H3N2) (natural protein)”, the stoichiometry N (usually the number of molecules, sites or subunits per partner or assembly) was 4 and 8.
